Data reported in patent publication US20210130436A1 (published 2021).
Numbering of substitutions follows the chain as printed. Names may count otherwise.

How the values were obtained:
human CD28 [1] = molecular target: T1, human CD28 (human, UniProt P10747 19-220); experiment: flow cytometry on Jurkat cells (CD28)
T1 construct: Endogenous CD28 on Jurkat/IL2 reporter cells

human PD-L1 [2] = molecular target: T2, human PD-L1 (human, UniProt Q9NZQ7 19-290); experiment: flow cytometry on CHO cells stably expressing PD-L1
T2 construct: also called huPD-L1; CD274
T2 sequence (Q9NZQ7 19-290): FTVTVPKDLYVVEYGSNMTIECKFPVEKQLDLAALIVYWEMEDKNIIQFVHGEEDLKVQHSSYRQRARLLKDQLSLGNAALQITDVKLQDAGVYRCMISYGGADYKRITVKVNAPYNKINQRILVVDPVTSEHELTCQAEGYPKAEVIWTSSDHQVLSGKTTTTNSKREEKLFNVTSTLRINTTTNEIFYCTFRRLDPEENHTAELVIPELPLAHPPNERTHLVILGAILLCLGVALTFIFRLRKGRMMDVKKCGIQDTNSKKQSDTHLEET

CD226 = molecular target: T3, CD226 (UniProt Q15762 19-336); experiment: flow cytometry on cells expressing CD226, Fc fusion at 100 nM
T3 construct: whole, on cells
T3 sequence (looked up): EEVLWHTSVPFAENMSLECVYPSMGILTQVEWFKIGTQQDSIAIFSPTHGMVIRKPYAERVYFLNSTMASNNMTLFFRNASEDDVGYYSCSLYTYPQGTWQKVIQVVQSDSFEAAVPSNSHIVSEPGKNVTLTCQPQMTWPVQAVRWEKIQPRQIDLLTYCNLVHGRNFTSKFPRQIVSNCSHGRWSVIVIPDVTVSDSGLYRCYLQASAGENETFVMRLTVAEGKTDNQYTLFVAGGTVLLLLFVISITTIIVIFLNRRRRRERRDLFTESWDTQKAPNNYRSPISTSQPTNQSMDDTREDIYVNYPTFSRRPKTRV

CD96 = molecular target: T4, CD96 (UniProt P40200 22-585, limits assumed); experiment: flow cytometry on cells expressing CD96, Fc fusion at 100 nM
T4 construct: whole, on cells
T4 sequence (looked up): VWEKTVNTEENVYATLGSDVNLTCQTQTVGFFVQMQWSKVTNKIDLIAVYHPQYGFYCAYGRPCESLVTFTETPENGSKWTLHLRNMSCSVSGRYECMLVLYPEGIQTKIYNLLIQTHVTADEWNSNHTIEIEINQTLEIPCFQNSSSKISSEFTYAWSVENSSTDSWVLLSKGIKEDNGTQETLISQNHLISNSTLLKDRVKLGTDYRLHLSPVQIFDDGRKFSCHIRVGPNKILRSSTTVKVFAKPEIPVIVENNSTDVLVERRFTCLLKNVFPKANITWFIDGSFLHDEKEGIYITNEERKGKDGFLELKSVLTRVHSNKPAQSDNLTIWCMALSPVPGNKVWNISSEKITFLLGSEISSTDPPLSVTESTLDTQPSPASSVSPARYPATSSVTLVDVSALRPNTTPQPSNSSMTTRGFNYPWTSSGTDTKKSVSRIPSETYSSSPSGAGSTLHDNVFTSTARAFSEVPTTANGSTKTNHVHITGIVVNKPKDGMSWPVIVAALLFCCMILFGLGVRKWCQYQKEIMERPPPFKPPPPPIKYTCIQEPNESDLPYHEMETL

human PD-L1 [3] = molecular target: T5, human PD-L1 (human, UniProt Q9NZQ7 19-290); experiment: flow cytometry; PD-L1 MFI over CD28 MFI
T5 construct: also called huPD-L1; CD274
T5 sequence (Q9NZQ7 19-290): as the sequence (Q9NZQ7 19-290) above

human CTLA-4 = molecular target: T6, human CTLA-4 (human, UniProt P16410 36-223); experiment: flow cytometry, CHO cells stably expressing CTLA4
T6 construct: also called huCTLA4

human PD-L1 [4] = molecular target: T5, human PD-L1; experiment: flow cytometry, CHO cells stably expressing PD-L1
human CD28 [5] = molecular target: human CD28 (human, UniProt P10747 19-220); experiment: flow cytometry, Jurkat cells (CD28)
[6] = molecular target: T7, human PD-L1 (huPD-L1), full-length, stably expressed on CHO cells (human, UniProt Q9NZQ7 19-290); experiment: flow cytometry, CHO cells expressing huPD-L1
T7 construct: whole, on cells

[7] = molecular target: T8, human CTLA4 (huCTLA4), full-length, stably expressed on CHO cells (human, UniProt P16410 36-223); experiment: flow cytometry, CHO cells expressing huCTLA4
T8 construct: whole, on cells

[8] = molecular target: T9, CD28, endogenously expressed on Jurkat/IL2 reporter cells (human, UniProt P10747 19-220); experiment: flow cytometry, Jurkat/IL2 reporter cells (endogenous CD28)
T9 construct: whole, on cells

[9] = molecular target: T10, human CTLA4 expressed on CHO cells (human, UniProt P16410 36-223); experiment: flow cytometry, CHO cells stably expressing CTLA4; MFI relative to WT CD80 ECD-Fc (Abcam)
T10 construct: whole, on cells; Target on CHO cells stably expressing CTLA4; also called huCTLA4

[10] = molecular target: T11, CD28 endogenously expressed on Jurkat/IL2 reporter cells (human, UniProt P10747 19-220); experiment: flow cytometry, Jurkat cells (CD28), Fc fusion at 33.3 nM
T11 construct: whole, on cells; Target on Jurkat cells; also called Jurkats (CD28)

[11] = molecular target: T10, human CTLA4 expressed on CHO cells; experiment: flow cytometry, CHO cells stably expressing CTLA4, Fc fusion at 33.3 nM
[12] = molecular target: T12, human PD-L1 expressed on CHO cells (human, UniProt Q9NZQ7 19-290); experiment: flow cytometry; MFI on PD-L1 cells over MFI on CD28 (Jurkat) cells at 33.3 nM
T12 construct: whole, on cells; Target on CHO cells stably expressing PD-L1; also called huPD-L1

[13] = molecular target: T12, human PD-L1 expressed on CHO cells; experiment: flow cytometry, CHO cells stably expressing PD-L1, Fc fusion at 33.3 nM
[14] = molecular target: T12, human PD-L1 expressed on CHO cells; experiment: flow cytometry, CHO cells stably expressing PD-L1; MFI relative to WT CD80 ECD-Fc (Abcam)
[15] = molecular target: T11, CD28 endogenously expressed on …; experiment: flow cytometry, Jurkat cells (CD28); MFI relative to WT CD80 ECD-Fc (Abcam)

T12 sequence (Q9NZQ7 19-290): as the sequence (Q9NZQ7 19-290) above
T6 sequence (P16410 36-223): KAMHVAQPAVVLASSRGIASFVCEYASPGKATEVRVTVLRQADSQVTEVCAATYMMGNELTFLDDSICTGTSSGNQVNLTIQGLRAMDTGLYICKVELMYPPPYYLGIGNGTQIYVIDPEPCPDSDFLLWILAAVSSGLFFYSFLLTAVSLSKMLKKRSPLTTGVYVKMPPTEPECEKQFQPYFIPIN
T10 sequence (P16410 36-223): as above
T7 sequence (Q9NZQ7 19-290): as the sequence (Q9NZQ7 19-290) above
T8 sequence (P16410 36-223): as the sequence (P16410 36-223) above

B1: CD80 ECD-Fc (inert) with GSG4S linker, Example 16 (Fc fusion)
chain: VIHVTKEVKEVATLSCGHNVSVEELAQTRIYWQKEKKMVLTMMSGDMNIWPEYKNRTIFDITNNLSIVILALRPSDEGTYECVVLKYEKDAFKREHLAEVTLSVKADFPTPSISDFEIPTSNIRRIICSTSGGFPEPHLSWLENGEELNAINTTVSQDPETELYAVSSKLDFNMTTNHSFMCLIKYGHLRVNQTFNWNTTKQEHFPDNGSGGGGSEPKSSDKTHTCPPCPAPEAEGAPSVFLFPPKPKDTLMISRTPEVTCVVVDVSHEDPEVKFNWYVDGVEVHNAKTKPREEQYNSTYRVVSVLTVLHQDWLNGKEYKCKVSNKALPAPIEKTISKAKGQPREPQVYTLPPSREEMTKNQVSLTCLVKGFYPSDIAVEWESNGQPENNYKTTPPVLDSDGSFFLYSKLTVDKSRWQQGNVFSCSVMHEALHNHYTQKSLSLSPG
Human CD28 [1]
  MFI at 33.3 nM: 37 MFI
Human PD-L1 [2]
  MFI at 33.3 nM: 35 MFI

B2: CD155 S52L/L104E variant IgV-Fc fusion (Fc fusion, not shown: a dimerising Fc or GST)
chain: WPPPGTGDVVVQAPTQVPGFLGDSVTLPCYLQVPNMEVTHVSQLTWARHGELGSMAVFHQTQGPSYSESKRLEFVAARLGAELRNASLRMFGLRVEDEGNYTCEFVTFPQGSRSVDIWLRVL
CD226
  MFI at 100 nM: 2210 MFI
CD96
  MFI at 100 nM: 1830 MFI

B3: CD155 T45Q/S52R/G111R variant IgV-Fc fusion (Fc fusion, not shown: a dimerising Fc or GST)
chain: B2 chain with T45Q, L52R, E104L, G111R
CD226
  MFI at 100 nM: 2080 MFI
CD96
  MFI at 100 nM: 2340 MFI

B4: CD155 T45Q/S52Q variant IgV-Fc fusion (Fc fusion, not shown: a dimerising Fc or GST)
chain: B2 chain with T45Q, L52Q, E104L
CD226
  MFI at 100 nM: 5790 MFI
CD96
  MFI at 100 nM: 2450 MFI

B5: CD80 IgV-Fc T13R/Q27L/Q33L/E35D/T41S/M47V/N48K/V68M/L85M (Fc fusion, not shown: a dimerising Fc or GST)
chain: VIHVTKEVKEVARLSCGHNVSVEELALTRIYWLKDKKMVLSMMSGDVKIWPEYKNRTIFDITNNLSIMILALRPSDEGTYECVVMKYEKDAFKREHLAEVTLSVKAD
Human PD-L1 [3]
  Ratio of PDL1:CD28: 224 ratio
Human CTLA-4
  Fold change to WT CD80: 0.1 fold
  MFI at 33.3 nM: 109 MFI
Human PD-L1 [4]
  Fold change to WT CD80: 63.5 fold
  MFI at 33.3 nM: 3270 MFI
Human CD28 [5]
  Fold change to WT CD80: 0.5 fold
  MFI at 33.3 nM: 14.6 MFI

B6: variant CD80 IgV-Fc E35D/M47V/V68M/L85M (Fc fusion, not shown: small tags and cut ends; a dimerising Fc or GST)
chain: B5 chain with R13T, L27Q, L33Q, S41T, K48N
[6]
  MFI at 33.3 nM: 9180 MFI
[7]
  MFI at 33.3 nM: 16000 MFI
[8]
  MFI at 33.3 nM: 201 MFI

B7: variant CD80 IgV-Fc E35D/D46E/M47L/V68M/T79M/L85M (Fc fusion, not shown: small tags and cut ends; a dimerising Fc or GST)
chain: B5 chain with R13T, L27Q, L33Q, S41T, D46E, V47L, K48N, T79M
[6]
  MFI at 33.3 nM: 8640 MFI
[8]
  MFI at 33.3 nM: 403 MFI

B8: CD80 E35D/M47V/N48K/K89N IgV-Fc (Fc fusion, not shown: small tags and cut ends; a dimerising Fc or GST)
chain: B5 chain with R13T, L27Q, L33Q, S41T, M68V, M85L, K89N
[9]
  Fold change to WT CD80: 1.1 fold
[10]
  MFI at 33.3 nM: 701 MFI
[11]
  MFI at 33.3 nM: 43800 MFI
[12]
  Ratio of PDL1:CD28: 9.5 ratio
[13]
  MFI at 33.3 nM: 6670 MFI
[14]
  Fold change to WT CD80: 52.1 fold
[15]
  Fold change to WT CD80: 1 fold

B9: CD80 IgV-Fc T13R/Q33R/E35D/M38I/M47L/V68M (Fc fusion, not shown: a dimerising Fc or GST)
chain: B5 chain with L27Q, L33R, M38I, S41T, V47L, K48N, M85L
Human PD-L1 [3]
  Ratio of PDL1:CD28: 325 ratio
Human PD-L1 [4]
  Fold change to WT CD80: 87 fold
  MFI at 33.3 nM: 4480 MFI
Human CD28 [5]
  Fold change to WT CD80: 0.4 fold
  MFI at 33.3 nM: 13.8 MFI
